IntAct's records for PubMed 22562154

B1: Importin subunit beta-5 (Saccharomyces cerevisiae), P53067 (parent)
chain: MDINELIIGAQSADKHTREVAETQLLQWCDSDASQVFKALANVALQHEASLESRQFALLSLRKLITMYWSPGFESYRSTSNVEIDVKDFIREVLLKLCLNDNENTKIKNGASYCIVQISAVDFPDQWPQLLTVIYDAISHQHSLNAMSLLNEIYDDVVSEEMFFEGGIGLATMEIVFKVLNTETSTLIAKIAALKLLKACLLQMSSHNEYDEASRKSFVSQCLATSLQILGQLLTLNFGNVDVISQLKFKSIIYENLVFIKNDFSRKHFSSELQKQFKIMAIQDLENVTHINANVETTESEPLLETVHDCSIYIVEFLTSVCTLQFSVEEMNKIITSLTILCQLSSETREIWTSDFNTFVSKETGLAASYNVRDQANEFFTSLPNPQLSLIFKVVSNDIEHSTCNYSTLESLLYLLQCILLNDDEITGENIDQSLQILIKTLENILVSQEIPELILARAILTIPRVLDKFIDALPDIKPLTSAFLAKSLNLALKSDKELIKSATLIAFTYYCYFAELDSVLGPEVCSETQEKVIRIINQVSSDAEEDTNGALMEVLSQVISYNPKEPHSRKEILQAEFHLVFTISSEDPANVQVVVQSQECLEKLLDNINMDNYKNYIELCLPSFINVLDSNNANNYRYSPLLSLVLEFITVFLKKKPNDGFLPDEINQYLFEPLAKVLAFSTEDETLQLATEAFSYLIFNTDTRAMEPRLMDIMKVLERLLSLEVSDSAAMNVGPLVVAIFTRFSKEIQPLIGRILEAVVVRLIKTQNISTEQNLLSVLCFLTCNDPKQTVDFLSSFQIDNTDALTLVMRKWIEAFEVIRGEKRIKENIVALSNLFFLNDKRLQKVVVNGNLIPYEGDLIITRSMAKKMPDRYVQVPLYTKIIKLFVSELSFQSKQPNPEQLITSDIKQEVVNANKDDDNDDWEDVDDVLDYDKLKEYIDDDVDEEADDDSDDITGLMDVKESVVQLLVRFFKEVASKDVSGFHCIYETLSDSERKVLSEALL

Variants of: B1
Settings: with gsp1_yeast GSP1, P32835

effect of a mutation on the interaction | Variant
decreasing interaction | K909R
